This is an account of results in publication PMC10318897, “The structure of Leptospira interrogans GAPDH sheds light into an immunoevasion factor that can target the anaphylatoxin C5a of innate immunity” (Frontiers in Immunology, 2023).

One may read the Km as the substrate concentration at which the rate is half of its maximum. A word on the kcat: it is the maximal rate divided by the concentration of active sites. The kcat/Km is the second-order rate constant that governs catalysis at low substrate concentration.

One data set concerns O=C[C@H](O)COP(=O)(O)O. The data set is described as follows: purified protein. To be noted: 2 mM NAD+, 5 mM phosphate, 40 mM Tris-HCl pH 8.5, 2 mM EDTA, 25 °C, fit with substrate inhibition.
The test system of data set [1] is NC(=O)c1ccc[n+]([C@@H]2O[C@H](COP(=O)(O)OP(=O)(O)OC[C@H]3O[C@@H](n4cnc5c(N)ncnc54)[C@H](O)[C@@H]3O)[C@@H](O)[C@H]2O)c1. The data set is described as follows: purified protein. To be noted: 2 mM G3P, 5 mM phosphate, 40 mM Tris-HCl pH 8.5, 2 mM EDTA, 25 °C.

For the substance “LiGAPDH (Leptospira interrogans serovar Copenhageni str. Fiocruz L1-130)”, in the data set on O=C[C@H](O)COP(=O)(O)O, the Km is 600 ± 100 µM, the turnover number (kcat) is 70 ± 7 s⁻¹ and the kcat/Km turned out to be 121000 ± 24000 M⁻¹ s⁻¹. Further, in data set [1], the Km came out at 81 ± 6 µM, the turnover number (kcat) was found to be 44.2 ± 0.9 s⁻¹ and the specificity constant (kcat/Km) is 543000 ± 44000 M⁻¹ s⁻¹.
